Holding throughout (test): cell-based or functional assay
The target in assay [1] is wild-type DENV2 E glycoprotein (Parent_WT_DENV2), on virus particles (Dengue virus 2) (UniProt P07564).
The target of assay [2] is DV4-EDIII-DV2 chimeric E glycoprotein (DENV4 backbone with DENV2 envelope domain III), on virus particles (Dengue virus 4/2).
In assay [3] the target is wild-type DENV4 E glycoprotein (Parent_WT_DENV4), on virus particles (Dengue virus 4) (UniProt P09866).

On to human monoclonal antibody 2D22, for which the figures for the FRNT50 (Vero-81 focus reduction neutralization test) in assay [1], in assay [2] and in assay [3] were 0.1 ng/µL, 0.01 ng/µL and more than 5 ng/µL, respectively.

The values above are taken from patent US20170333548A1.
